From publication PMC9636267 (Communications Biology, 2022) come the findings set out here.

This assay addresses T1, HCoV-229E S ectodomain (17–1115 aa), 229E S trimer (human coronavirus 229E, UniProt P15423 17-1115).
T1 sequence (looked up): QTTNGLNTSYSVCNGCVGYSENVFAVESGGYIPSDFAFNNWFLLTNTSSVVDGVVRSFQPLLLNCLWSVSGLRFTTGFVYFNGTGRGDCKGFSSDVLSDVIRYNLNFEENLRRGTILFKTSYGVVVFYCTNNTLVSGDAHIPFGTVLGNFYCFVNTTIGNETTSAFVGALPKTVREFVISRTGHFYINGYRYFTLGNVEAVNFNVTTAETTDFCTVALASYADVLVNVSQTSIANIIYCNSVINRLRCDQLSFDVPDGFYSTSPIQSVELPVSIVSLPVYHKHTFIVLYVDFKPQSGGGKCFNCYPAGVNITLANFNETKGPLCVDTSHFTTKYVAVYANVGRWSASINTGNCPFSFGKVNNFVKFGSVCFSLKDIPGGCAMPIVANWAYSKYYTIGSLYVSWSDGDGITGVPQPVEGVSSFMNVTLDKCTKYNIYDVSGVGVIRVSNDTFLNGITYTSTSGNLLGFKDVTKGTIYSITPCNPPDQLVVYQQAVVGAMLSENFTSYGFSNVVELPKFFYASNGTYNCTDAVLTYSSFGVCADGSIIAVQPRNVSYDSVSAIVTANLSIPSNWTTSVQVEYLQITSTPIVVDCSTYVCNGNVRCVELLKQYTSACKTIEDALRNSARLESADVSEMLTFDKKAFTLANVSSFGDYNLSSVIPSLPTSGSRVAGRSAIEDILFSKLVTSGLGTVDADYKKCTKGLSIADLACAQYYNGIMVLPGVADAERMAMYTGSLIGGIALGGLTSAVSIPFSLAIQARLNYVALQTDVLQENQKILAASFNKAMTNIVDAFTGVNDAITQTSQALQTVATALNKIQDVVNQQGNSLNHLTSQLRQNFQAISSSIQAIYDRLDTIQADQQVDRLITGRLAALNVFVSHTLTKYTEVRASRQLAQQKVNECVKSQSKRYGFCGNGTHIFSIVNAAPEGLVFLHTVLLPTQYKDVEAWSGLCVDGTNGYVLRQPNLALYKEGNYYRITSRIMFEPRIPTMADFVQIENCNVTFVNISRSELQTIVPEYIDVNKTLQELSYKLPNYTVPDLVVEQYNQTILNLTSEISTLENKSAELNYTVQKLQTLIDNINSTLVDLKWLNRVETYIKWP
Nature of the assay: SPR. The conditions noted are these: both partners purified.

B1: human aminopeptidase N (hAPN), soluble ectodomain (66–967 aa) (receptor, UniProt P15144 66-967, looked up)
chain: DQSKAWNRYRLPNTLKPDSYRVTLRPYLTPNDRGLYVFKGSSTVRFTCKEATDVIIIHSKKLNYTLSQGHRVVLRGVGGSQPPDIDKTELVEPTEYLVVHLKGSLVKDSQYEMDSEFEGELADDLAGFYRSEYMEGNVRKVVATTQMQAADARKSFPCFDEPAMKAEFNITLIHPKDLTALSNMLPKGPSTPLPEDPNWNVTEFHTTPKMSTYLLAFIVSEFDYVEKQASNGVLIRIWARPSAIAAGHGDYALNVTGPILNFFAGHYDTPYPLPKSDQIGLPDFNAGAMENWGLVTYRENSLLFDPLSSSSSNKERVVTVIAHELAHQWFGNLVTIEWWNDLWLNEGFASYVEYLGADYAEPTWNLKDLMVLNDVYRVMAVDALASSHPLSTPASEINTPAQISELFDAISYSKGASVLRMLSSFLSEDVFKQGLASYLHTFAYQNTIYLNLWDHLQEAVNNRSIQLPTTVRDIMNRWTLQMGFPVITVDTSTGTLSQEHFLLDPDSNVTRPSEFNYVWIVPITSIRDGRQQQDYWLIDVRAQNDLFSTSGNEWVLLNLNVTGYYRVNYDEENWRKIQTQLQRDHSAIPVINRAQIINDAFNLASAHKVPVTLALNNTLFLIEERQYMPWEAALSSLSYFKLMFDRSEVYGPMKNYLKKQVTPLFIHFRNNTNNWREIPENLMDQYSEVNAISTACSNGVPECEEMVSGLFKQWMENPNNNPIHPNLRSTVYCNAIAQGGEEEWDFAWEQFRNATLVNEADKLRAALACSKELWILNRYLSYTLNPDLIRKQDATSTIISITNNVIGQGLVWDFVQSNWKKLFNDYGGGSFSFSNLIQAVTRRFSTEYELQQLEQFKKDNEETGFGSGTRALEQALEKTKANIKWVKENKEVVLQWFTENSK
notes: also called recombinant hAPN protein
In the case of B1, the binding result is reported as “binds”.
